Results taken from US20260001928A1 (CORTERIA PHARMACEUTICALS, priority 2022, published 2026).
*1 amine or outer side, *2 acyl side, *3 side chain or, on linkers, in order; H or OH if unused. Side-chain parts run from the residue outwards. [ ]: non-standard residue; d: D form. The star is where a group is joined. C18 diacid = O=C(O)CCCCCCCCCCCCCCCCC(=O)*; C16 diacid = O=C(O)CCCCCCCCCCCCCCC(=O)*; γGlu = O=C(O)[C@H](CCC(=O)[*:2])N[*:1]; Pentanoyl = CCCCC(=O)*; AEEA = NCCOCCOCC(=O)O; Butyryl = CCCC(=O)*

T1: CRF1R receptor (UniProt P34998 24-415, limits assumed)
T1 sequence (looked up): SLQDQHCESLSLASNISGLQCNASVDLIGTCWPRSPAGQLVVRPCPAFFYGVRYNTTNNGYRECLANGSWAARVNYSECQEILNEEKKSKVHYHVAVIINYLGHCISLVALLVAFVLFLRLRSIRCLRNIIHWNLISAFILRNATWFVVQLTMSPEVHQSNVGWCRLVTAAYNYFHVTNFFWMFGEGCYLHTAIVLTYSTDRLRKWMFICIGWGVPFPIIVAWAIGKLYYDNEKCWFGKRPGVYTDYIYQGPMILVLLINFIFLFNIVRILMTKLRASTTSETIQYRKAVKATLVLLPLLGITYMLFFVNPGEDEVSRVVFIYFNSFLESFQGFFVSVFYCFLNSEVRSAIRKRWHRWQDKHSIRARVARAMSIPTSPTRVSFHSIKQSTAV

B1: SEQ ID NO 37 (peptide)
peptide: Pentanoyl-VLSLD[dV]PIKLK([γGlu-C16 diacid])KILLEQEKQKKQREQAETNKQILAQV-NH2
SMILES: CCCCC(=O)N[C@H](C(=O)N[C@@H](CC(C)C)C(=O)N[C@@H](CO)C(=O)N[C@@H](CC(C)C)C(=O)N[C@@H](CC(=O)O)C(=O)N[C@@H](C(=O)N1CCC[C@H]1C(=O)N[C@H](C(=O)N[C@@H](CCCCN)C(=O)N[C@@H](CC(C)C)C(=O)N[C@@H](CCCCNC(=O)CC[C@H](NC(=O)CCCCCCCCCCCCCCC(=O)O)C(=O)O)C(=O)N[C@@H](CCCCN)C(=O)N[C@H](C(=O)N[C@@H](CC(C)C)C(=O)N[C@@H](CC(C)C)C(=O)N[C@@H](CCC(=O)O)C(=O)N[C@@H](CCC(N)=O)C(=O)N[C@@H](CCC(=O)O)C(=O)N[C@@H](CCCCN)C(=O)N[C@@H](CCC(N)=O)C(=O)N[C@@H](CCCCN)C(=O)N[C@@H](CCCCN)C(=O)N[C@@H](CCC(N)=O)C(=O)N[C@@H](CCCNC(=N)N)C(=O)N[C@@H](CCC(=O)O)C(=O)N[C@@H](CCC(N)=O)C(=O)N[C@@H](C)C(=O)N[C@@H](CCC(=O)O)C(=O)N[C@H](C(=O)N[C@@H](CC(N)=O)C(=O)N[C@@H](CCCCN)C(=O)N[C@@H](CCC(N)=O)C(=O)N[C@H](C(=O)N[C@@H](CC(C)C)C(=O)N[C@@H](C)C(=O)N[C@@H](CCC(N)=O)C(=O)N[C@H](C(N)=O)C(C)C)[C@@H](C)CC)[C@@H](C)O)[C@@H](C)CC)[C@@H](C)CC)C(C)C)C(C)C
B2: SEQ ID NO 103 (peptide)
peptide: Ac-IVLSLD[dV]PIKLK([AEEA-AEEA-γGlu-C18 diacid])KILLEQEKQKKQREQAETNVQILAQV-NH2
SMILES: CC[C@H](C)[C@H](NC(C)=O)C(=O)N[C@H](C(=O)N[C@@H](CC(C)C)C(=O)N[C@@H](CO)C(=O)N[C@@H](CC(C)C)C(=O)N[C@@H](CC(=O)O)C(=O)N[C@@H](C(=O)N1CCC[C@H]1C(=O)N[C@H](C(=O)N[C@@H](CCCCN)C(=O)N[C@@H](CC(C)C)C(=O)N[C@@H](CCCCNC(=O)COCCOCCNC(=O)COCCOCCNC(=O)CC[C@H](NC(=O)CCCCCCCCCCCCCCCCC(=O)O)C(=O)O)C(=O)N[C@@H](CCCCN)C(=O)N[C@H](C(=O)N[C@@H](CC(C)C)C(=O)N[C@@H](CC(C)C)C(=O)N[C@@H](CCC(=O)O)C(=O)N[C@@H](CCC(N)=O)C(=O)N[C@@H](CCC(=O)O)C(=O)N[C@@H](CCCCN)C(=O)N[C@@H](CCC(N)=O)C(=O)N[C@@H](CCCCN)C(=O)N[C@@H](CCCCN)C(=O)N[C@@H](CCC(N)=O)C(=O)N[C@@H](CCCNC(=N)N)C(=O)N[C@@H](CCC(=O)O)C(=O)N[C@@H](CCC(N)=O)C(=O)N[C@@H](C)C(=O)N[C@@H](CCC(=O)O)C(=O)N[C@H](C(=O)N[C@@H](CC(N)=O)C(=O)N[C@H](C(=O)N[C@@H](CCC(N)=O)C(=O)N[C@H](C(=O)N[C@@H](CC(C)C)C(=O)N[C@@H](C)C(=O)N[C@@H](CCC(N)=O)C(=O)N[C@H](C(N)=O)C(C)C)[C@@H](C)CC)C(C)C)[C@@H](C)O)[C@@H](C)CC)[C@@H](C)CC)C(C)C)C(C)C
B3: SEQ ID NO 36 (peptide)
peptide: Butyryl-VLSLD[dV]PIKLK([γGlu-C16 diacid])KILLEQEKQKKQREQAETNKQILAQV-NH2
SMILES: CCCC(=O)N[C@H](C(=O)N[C@@H](CC(C)C)C(=O)N[C@@H](CO)C(=O)N[C@@H](CC(C)C)C(=O)N[C@@H](CC(=O)O)C(=O)N[C@@H](C(=O)N1CCC[C@H]1C(=O)N[C@H](C(=O)N[C@@H](CCCCN)C(=O)N[C@@H](CC(C)C)C(=O)N[C@@H](CCCCNC(=O)CC[C@H](NC(=O)CCCCCCCCCCCCCCC(=O)O)C(=O)O)C(=O)N[C@@H](CCCCN)C(=O)N[C@H](C(=O)N[C@@H](CC(C)C)C(=O)N[C@@H](CC(C)C)C(=O)N[C@@H](CCC(=O)O)C(=O)N[C@@H](CCC(N)=O)C(=O)N[C@@H](CCC(=O)O)C(=O)N[C@@H](CCCCN)C(=O)N[C@@H](CCC(N)=O)C(=O)N[C@@H](CCCCN)C(=O)N[C@@H](CCCCN)C(=O)N[C@@H](CCC(N)=O)C(=O)N[C@@H](CCCNC(=N)N)C(=O)N[C@@H](CCC(=O)O)C(=O)N[C@@H](CCC(N)=O)C(=O)N[C@@H](C)C(=O)N[C@@H](CCC(=O)O)C(=O)N[C@H](C(=O)N[C@@H](CC(N)=O)C(=O)N[C@@H](CCCCN)C(=O)N[C@@H](CCC(N)=O)C(=O)N[C@H](C(=O)N[C@@H](CC(C)C)C(=O)N[C@@H](C)C(=O)N[C@@H](CCC(N)=O)C(=O)N[C@H](C(N)=O)C(C)C)[C@@H](C)CC)[C@@H](C)O)[C@@H](C)CC)[C@@H](C)CC)C(C)C)C(C)C
B4: SEQ ID NO 48 (peptide)
peptide: Ac-IVLSLD[dV]PIKLK([γGlu-C16 diacid])KILLEQEKQKKQREQAETNVQILAQV-NH2
SMILES: CC[C@H](C)[C@H](NC(C)=O)C(=O)N[C@H](C(=O)N[C@@H](CC(C)C)C(=O)N[C@@H](CO)C(=O)N[C@@H](CC(C)C)C(=O)N[C@@H](CC(=O)O)C(=O)N[C@@H](C(=O)N1CCC[C@H]1C(=O)N[C@H](C(=O)N[C@@H](CCCCN)C(=O)N[C@@H](CC(C)C)C(=O)N[C@@H](CCCCNC(=O)CC[C@H](NC(=O)CCCCCCCCCCCCCCC(=O)O)C(=O)O)C(=O)N[C@@H](CCCCN)C(=O)N[C@H](C(=O)N[C@@H](CC(C)C)C(=O)N[C@@H](CC(C)C)C(=O)N[C@@H](CCC(=O)O)C(=O)N[C@@H](CCC(N)=O)C(=O)N[C@@H](CCC(=O)O)C(=O)N[C@@H](CCCCN)C(=O)N[C@@H](CCC(N)=O)C(=O)N[C@@H](CCCCN)C(=O)N[C@@H](CCCCN)C(=O)N[C@@H](CCC(N)=O)C(=O)N[C@@H](CCCNC(=N)N)C(=O)N[C@@H](CCC(=O)O)C(=O)N[C@@H](CCC(N)=O)C(=O)N[C@@H](C)C(=O)N[C@@H](CCC(=O)O)C(=O)N[C@H](C(=O)N[C@@H](CC(N)=O)C(=O)N[C@H](C(=O)N[C@@H](CCC(N)=O)C(=O)N[C@H](C(=O)N[C@@H](CC(C)C)C(=O)N[C@@H](C)C(=O)N[C@@H](CCC(N)=O)C(=O)N[C@H](C(N)=O)C(C)C)[C@@H](C)CC)C(C)C)[C@@H](C)O)[C@@H](C)CC)[C@@H](C)CC)C(C)C)C(C)C

Tests used:
[1] = target: human corticotropin-releasing factor 2a (CRF2a receptor) (human), Q13324; assay: cell-based or functional assay
Chain of human corticotropin-releasing factor 2a (CRF2a receptor) (human), Q13324 (Q13324 20-411): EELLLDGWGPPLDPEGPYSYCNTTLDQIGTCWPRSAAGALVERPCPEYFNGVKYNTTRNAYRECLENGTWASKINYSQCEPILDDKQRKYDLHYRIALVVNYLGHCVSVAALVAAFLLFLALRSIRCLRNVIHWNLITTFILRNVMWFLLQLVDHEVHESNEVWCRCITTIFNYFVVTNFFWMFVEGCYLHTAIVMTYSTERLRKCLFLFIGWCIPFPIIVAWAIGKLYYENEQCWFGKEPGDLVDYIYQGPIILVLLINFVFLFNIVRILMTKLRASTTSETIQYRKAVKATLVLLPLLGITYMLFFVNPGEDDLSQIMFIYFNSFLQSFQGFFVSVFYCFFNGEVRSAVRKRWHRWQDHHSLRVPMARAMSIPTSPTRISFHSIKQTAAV

CRF1R receptor = target: T1, CRF1R receptor; assay: cell-based or functional assay

Row | Binder | EC50 [nM] (cAMP) [1] | Emax (% I) (CRF1R receptor)
1 | B1 | 0.13 nM | 22%
2 | B2 | 3.09 nM | 3%
3 | B3 | 0.14 nM | 22%
4 | B4 | 1.35 nM | 4%
